# From patent publication US20200270588A1, “GLUCOSYL TRANSFERASE POLYPEPTIDES AND METHODS OF USE” (Syngenta Participations AG, priority 2017, published 2020)
# Changes are numbered by the printed parent chain. In names and notes the source's numbering stands.
# B1: SEQ ID NO: 50: zmBX8/zmBX9 hybrid polypeptide (protein)
# chain: MAASCGGRVVVFPFPFQGHFNPVMRLARALHARGVGITVFHTAGARAPDPADYPADYRFVPVPVEVAPELMASEDIAAIVTALNAACEAPFRDRLSALLSAADGEAGEAGGRVRCVLTDVSWDAVLSAARGLGVPALGVMTASAATFRVYMAYRTLVDKGYLPVREERKDDAVAELPPYRVKDLLRHETCDLEEFADLLGRVIAAARLSSGLIFHTFPFIEAGTLGEIRDDMSVPVYAVAPLNKLVPAATASLHGEVQADRGCLRWLDAQRARSVLYVSFGSMAAMDPHEFVELAWGLADAGRPFVWVVRPNLIRGFESGALPDGVEDRVRGRGVVVSWAPQEEVLAHPAVGGFFTHCGWNSTVEAISEGVPMVCCPRHGDQFGNMRYVCDVWKVGTELVGEQLERGQVKAAIDRLFGTKEGEEIKERMKEFKIAAAKGIGIGVDVDETASPRTDLTDLVDLIKSF
# modifications: Hybrid sequence between Zea mays Bx8 and Bx9 sequences
# notes: zmBX8/zmBX9 hybrid polypeptide
# B2: SEQ ID NO: 51: zmBX8/zmBX9 hybrid polypeptide (bx8/bx9 hybrid 2) (protein)
# chain: B1 chain with I367V, V374I, C376H
# modifications: Hybrid sequence between Zea mays Bx8 and Bx9 sequences
# B3: V367I, H376C: double mutant of Zea mays bx8 (protein)
# chain: MAASCGGRVVVFPFPFQGHFNPVMRLARALHARGVGITVFHTAGARAPDPADYPADYRFVPVPVEVAPELMASEDIAAIVTALNAACEAPFRDRLSALLSAADGEAGEAGGRVRCVLTDVSWDAVLSAARGLGVPALGVMTASAATFRVYMAYRTLVDKGYLPVREERKDDAVAELPPYRVKDLLRHETCDLEEFADLLGRVIAAARLSSGLIFHTFPFIEAGTLGEIRDDMSVPVYAVAPLNKLVPAATASLHGEVQADRGCLRWLDAQRARSVLYVSFGSMAAMDPHEFVELAWGLADAGRPFVWVVRPNLIRGFESGALPDGVEDRVRGRGVVVSWAPQEEVLAHPAVGGFFTHCGWNSTVEAISEGVPMICCPRHGDQYGNARYVCHVWKVGTEVAGDQLERGEIKAAIDRLMGGSEEGEGIRKRMNELKIAADKGIDESAGSDLTNLVHLINSY
# modifications: Mutated Zea mays Bx8 protein sequence
# B4: D170E, A72P, A174P: triple mutant of Zea mays bx8 (protein)
# chain: B3 chain with A72P, D170E, A174P, I367V, C376H
# modifications: Mutated Zea mays Bx8 protein sequence
# B5: E256V, R265Q: double mutant of Zea mays bx8 (protein)
# chain: B3 chain with E256V, R265Q, I367V, C376H
# modifications: Mutated Zea mays Bx8 protein sequence
# Key:
# [1] = tested on: CON1C(=O)N(c2cc(C(F)(F)F)ccn2)C(O)[C@@H]1C; assay: UDP-Glo glucosyl transferase assay, purified enzyme; type: biochemical, Zea mays; settings: other: DMSO reagent blank as control, pH 7.5
# Method: (§1) Glucosyl transferase activity is assayed via measurement of acceptor substrate-dependent production of UDP from ultrapure UDP-glucose using the Promega UDP-Glo™ method and according to the manufacturer's instructions. Assays are run in 96 well microtiter plates.
# (§2) Enzyme, typically at a stock concentration of ˜2 mg/ml is diluted to an appropriate concentration in 50 mM K^+ Hepes buffer at pH7.5 containing 0.5 mg/mL bovine serum albumin (BSA) and 5 ul aliquots of this diluted enzyme added to each well of a Perkin Elmer white ½ area 96 well plate. […] Assays are run for an appropriate time (usually 10 to 60 min) so that the amount of UDP formed lies within the most nearly linear part of the UDP standard curve and are stopped with the addition and mixing of 25 ul UDP-Glo™ detection reagent (prepared as described below). Plates are then incubated at room temperature for 60 minutes and then read in a luminescence plate reader (Perkin Elmer Envision 2130 Multilabel Reader). A UDP standard curve is run alongside each set of assays and reagent blank control assays run with DMSO in place of test herbicide. Typically, 300 pmol of UDP corresponds to a Relative Luminescence Unit (RLU) reading of about 1.5E7 and the response curve between 0 and 600 pmol is fitted to a polynomial function (see for example FIG. 2).
# (§3) The UDP-Glo™ reagents are made up and used according to the manufacturer's instructions. Thus, Nucleotide Detection Buffer and ATP are combined to make nucleotide detection reagent (NDR) dispensed into aliquots and frozen to be freshly thawed before use.
# (§4) Km and kcat values in respect of UDP-glucose are derived by carrying out experiments to measure initial rates over a suitable range of concentrations of UDP glucose out at a fixed near saturating concentration of acceptor substrate. Best fit values of kcat, Km and kcat/Km are obtained by direct fitting of the data to the Michaelis-Menten equation using Graphpad Prism™ software.
# (§5) Variants of C-terminally his tagged SEQ ID No:1 (w/t bx9 from Zea mays), exemplified as SEQ ID 16-30, were cloned, purified and assayed as described in Example 1. FIG. 4 depicts the data from some experiments to determine the kinetic parameters of some of these variants in respect of herbicide VI and table 12 summarizes the estimates of kinetic parameters obtained from further such experiments in respect of a range of herbicides.
# [2] = tested on: CN1CC(O)N(c2cc(C(F)(F)F)c(Cl)cn2)C1=O; assay: as above; type: biochemical, Zea mays; settings: other: control = inactive H24A mutant of bx9 (asterisk), pH 7.5
# Method: as §1, §2, §3, §4, §5
# (§6) Table 13 summarizes the results obtained from assays, run as described in Example 1, using a variety of alcohol and aminal PSII herbicides as substrates of the Zea mays bx9 w/t (i.e. C-terminally his tagged SEQ ID no 1) and various mutants of the same, selected from SEQ ID NO: 16-30). All of these proteins were C-terminally his-tagged, expressed and purified as described in Example 1. Assays were run and analyzed as described in example 1. It is seen that various of the mutations herein and combinations thereof led to significant improvements (over the w/t bx9 protein) in catalytic activity versus various of the herbicides and that these improvements are often of sufficient magnitude to be useful for conferring improved herbicide tolerance upon crop. This is especially the case given that even the unmutated w/t bx9 enzyme which has only modest glucosyl transferase activity (for example against compounds V and VI) was nevertheless adequately active to confer significant herbicide tolerance in the glass house (as shown in example 9) even without mutational improvement. It is also seen that particular mutations can lead to very much improved activity in respect of some chemistries but not to others but that, overall, there is at least one variant within the scope of the current invention that provides significant and useful improvement in tolerance to each of the chemistries tested.
# [3] = tested on: CN1CC(O)N(c2cc(C(F)(F)F)ccn2)C1=O; assay: as above; type: biochemical, Zea mays; settings: other: DMSO reagent blank as control, pH 7.5
# Method: as §1, §2, §3, §4, §5, §6
# [4] = tested on: Cc1cnc(N2C(=O)N(C)CC2O)cc1C(F)(F)F; assay: as above; type: biochemical, Zea mays; settings: other: control = inactive H24A mutant of bx9 (asterisk), pH 7.5
# Method: as §1, §2, §3, §4, §5, §6
# [5] = tested on: CON1C(=O)N(c2cc(C(F)(F)F)c(Cl)cn2)C(O)C1C; assay: as above; type: biochemical, Zea mays; settings: other: control = inactive H24A mutant of bx9 (asterisk), pH 7.5
# Method: as §1, §2, §3, §4, §5, §6
# [6] = tested on: CN1CC(O)N(c2cc(C(F)(F)F)ccn2)C1=O; assay: as above; type: biochemical, Zea mays; settings: other: DMSO reagent blank as control, pH 7.5; remark: listed apart in the source
# Method: as §1, §2, §3, §4, §5
# [7] = tested on: CON1C(=O)N(c2cc(C(F)(F)F)ccn2)C(O)[C@@H]1C; assay: as above; type: biochemical, Zea mays; settings: other: DMSO reagent blank as control, pH 7.5; remark: listed apart in the source
# Method: as §1, §2, §3, §4, §5, §6
# [8] = LC/MS plate assay of crude E. coli extracts, Zea mays bx8 derivatives, herbicide V; type: biochemical; settings: for activity with herbicide V: LC/MS; for activity relative to like-expressed Zea mays bx9 w/t extract: herbicide V, LC/MS peaks, estimate
# Method: In an alternative method for assaying the various enzymes, the test glucosyl transferase enzyme is reacted with substrates exactly as above except that the assay is stopped by adding an equal volume of acetonitrile. Alternatively 50 or 100 μl samples from assay reactions are added to 500 μl ethyl acetate to stop the reaction. In this case samples are then vortexed and 400 μl of the ethyl acetate partition removed, dried down, and resuspended in 100 μl 80:20 acetonitrile/water. The formation of product gluco side and/or disappearance of substrate test herbicide is then monitored directly by LC/MS. Samples are analyzed by LC-MS using an Agilent 1290 liquid chromatography system and Thermo Q-Exactive mass spectrometer. The chromatography is achieved on a Waters Acquity C18 BEH (50×2.1 mm) 1.7 μm particle size column, using a 6 minute gradient run of Water (0.2% formic acid) and Acetonitrile. The Q-Exactive is operated in positive ionisation electrospray mode, using Full scan-AIF mode, at 35,000 resolution, between 100-800 m/z. All analytes are identified from the full scan data to within at least 5 ppm accuracy of their predicted pseudo-molecular ion [M+H]^+ m/z value. In order to obtain quantitative data standard curves are run using herbicides and herbicide glucosides synthesized as standards. Where these synthetic glucosides were not available the LC/MS assay could only be used to provide relative data.
# The glucosyl transferase activities of the mutant bx8-derived polypeptides expressed in these strains were initially assayed versus herbicide V as described in Example 1. The partly purified C-terminally his tagged w/t bx8 enzyme (SEQ ID No: 2) catalyzed glucosyl transfer to herbicide V at a low rate estimated to be less than about 0.002/s at 1 mM herbicide V which, because of a relatively high background of UDP formation in the DMSO (no substrate reagent control) was difficult to quantify using the luminescence assay. Thus further assays were run by LC/MS using which technique the formation of an O-beta glucosyl glucoside of herbicide V could more easily be confirmed but only quantified in a relative sense. Thus the various derivatives of C-terminally his tagged Zea mays bx8 SEQ ID No:2 were cloned and expressed in E. coli BL21 (DE3) as described in Example 1 and assayed in plates as crude extracts, as in Example 2, but monitored by LCMS rather than the luminescence assay.
# The different stereoisomer standards chromatographed distinctly on LC (FIGS. 8A-8H). By comparing the LC elution profiles of the standards with the enzyme products at the correct mass it was possible to characterize which polypeptides catalyzed the formation of which O-glucosides. Assay samples and glucoside conjugate standards are run using the identical chromatographic conditions to allow us to identify the conjugate isomer formed in the assay. In short, as would be expected for inverting glucosyl transferases all of the bx enzymes tested produced beta glucoside products (from the alpha-UDP-glucose substrate) from all herbicides tested. But there can be subtle variations between enzymes in stereochemistry of the products made at other chiral centers.
molecule,measurement,setting,value
"SEQ ID NO 16, zmBX9 S117V, M279F, A334R mutant (Zea mays; A334R/M279F/S117V)",Km,[1],2.8 µM
same,kcat,[1],2.45 s⁻¹
same,kcat/Km,[1],880000 M⁻¹ s⁻¹
"SEQ ID NO 22, mutant of Zea mays bx9 glucosyl transferase (Zea mays; A334K/F21Y/M279F/S117V/T220P)",Km,[2],320 µM
same,kcat,[2],0.8 s⁻¹
same,kcat/Km,[2],2500 M⁻¹ s⁻¹
same,Km,[3],14.7 µM
same,kcat,[3],1.32 s⁻¹
same,kcat/Km,[3],89700 M⁻¹ s⁻¹
same,Km,[4],200 µM
same,kcat,[4],1.16 s⁻¹
same,kcat/Km,[4],5950 M⁻¹ s⁻¹
same,Km,[5],20 µM
same,kcat,[5],1.68 s⁻¹
same,kcat/Km,[5],68900 M⁻¹ s⁻¹
"SEQ ID 24, mutant of Zea mays bx9 glucosyl transferase (Zea mays; A334K/L194C/M279F/S117V)",Km,[6],45.5 µM
same,kcat,[6],2.61 s⁻¹
same,kcat/Km,[6],57500 M⁻¹ s⁻¹
"SEQ ID NO 17, zmBX9 S117V, M279F, A334K mutant (Zea mays; A334K/M279F/S117V)",Km,[2],10530 µM
same,kcat,[2],2.04 s⁻¹
same,kcat/Km,[2],190 M⁻¹ s⁻¹
same,Km,[3],109.7 µM
same,kcat,[3],0.852 s⁻¹
same,kcat/Km,[3],7800 M⁻¹ s⁻¹
same,Km,[4],800 µM
same,kcat,[4],0.38 s⁻¹
same,kcat/Km,[4],480 M⁻¹ s⁻¹
same,Km,[5],190 µM
same,kcat,[5],2.08 s⁻¹
same,kcat/Km,[5],11200 M⁻¹ s⁻¹
same,Km,[7],2.2 µM
same,kcat,[7],2.08 s⁻¹
same,kcat/Km,[7],938000 M⁻¹ s⁻¹
"SEQ ID NO 21, mutant of Zea mays bx9 glucosyl transferase (Zea mays; A334K/F21Y/L194V/M279F/S117V)",Km,[3],57.3 µM
same,kcat,[3],1.86 s⁻¹
same,kcat/Km,[3],32500 M⁻¹ s⁻¹
"SEQ ID 25, mutant of Zea mays bx9 glucosyl transferase (Zea mays; A334R/M279F/S117C)",Km,[1],8.5 µM
same,kcat,[1],3.24 s⁻¹
same,kcat/Km,[1],380000 M⁻¹ s⁻¹
B1,activity with herbicide V,[8],active
same,activity relative to like-expressed Zea mays bx9 w/t extract,[8],about a third to a half
same,activity relative to like-expressed Zea mays bx9 w/t extract,[8]; listed as 50,up to about half
B2,activity with herbicide V,[8],active
B3,activity with herbicide V,[8],detectable activity
B4,activity with herbicide V,[8],detectable activity
B5,activity with herbicide V,[8],detectable activity
